Laboratory results: the DeepSol protein solubility set

assay: soluble on expression in E. coli; label from the status in PepcDB or PDB records

Sequence	soluble on expression in E. coli
MPTKGRVFVLGHSQDKDCVSRETGRRTTSITVPRDKCGVETVQHGKGAGYTSSVNIVISFHDKFLTKVDRAYNITCLYAPTGDVVSYALTVQPSLLKDIQVLAEQPSCEYEVFDVRTRRPAEIVHVNAPLEHVWTCDGTNLDLFCMTVHDCVINEGKSKRRSKIIDSEGCSLDTTRLPNLRYENNKLSARVMSKAFRFGDDVAVEFECNVRLDLRNGTSCPRPRC	not soluble
MPTLGFRFRAYTDEQTLRALKAQLKLACKIYNTLRWADIYFYQRDGKGLTQTELRQLALDLRKQDDEYKQLYSQVVQQIADRYYEAKKRFFEGLARFPKEKKPHKYYSLVYTQSGWKILHVREIRKGSKKNKKKLITLKLSNLGTFKVIVHRDFPLDKVKRVVVKLTRSERIYITFVVEGYEFPKLPNTGKVVAIDVGVEKLLVTPDGEYFPNLRPLEKALWKVKHLHRELSRKKFLSNNWFKAKVKLARAYEHLKNLRSDLYMKLGKWFAEHYDVVVMEGIHAKQLVGKSLRSLRRRLSDVGFGELRDVLKYQLEKYGKKLILVNPAYTSKTCARCGYVKNDLSLSDRVFVCPNCGWIADRDYNASLNILKGAGSERSLVPVELRPLPVPALRYWHGRAVKQEAPSFMRGLEHHHHHH	soluble
MPTPEKRLRLMQLASNSLPVGGYSWSQGLEWAVEAGWVEDSAAFEHWQQLQMEQSFFAVDLPLLARLYRACEAGDPDSAGRWTAYLLACRETRELRDEERNRGAAFTRLLVDWQPDCPAEWRKLCQQSQLTGMAWLGVRWQISVSDLALSLGYSWIESAVMAGVRLVPYGQLAAQQLIMRLCARYAANMDSALATPDHAIGSATPLASIASARHETQYSRLFRS	not soluble
MPTSELTKERDLRDSKPIWADTPRTGIRSTHTPAANHYDTIVVGAGISGALVSHALHRPGQTMLIIDRREPVMGSSVASTAMIQHEIDTPLTELRKMIGKDAADRAWQRSARAVLRLEEIVSSLGISCSMKRKQALYLAGDEMGSRALKAEAAAREEAGIEARFLSTGELREQYGLDRTAAILSDISASANPAQLTAGLLRHTAAAGAEIVSKLEITDLRNLGDEVVLATADGKILSARSVVFCTGYEFLKMLESPKHQIISTWALASKKGLDLPDWLESHIVWEASDPYLYLRTDRDGRVIAGGEDEENPTAYQSERKLTAKAEAIRRKVEKLIGIDMGAPDYRWAAAFGTTTTGLPLIGAVPGMKNVYAVMGFGGNGITFSQIAAEIVAAAVNGGKDPDADLFRFGLEHHHHHH	soluble
MPVEHLDVLIVGAGLSGVGAAYHLMKHCPGKSFALLEGRAAMGGTWDLFRYPGIRSDSDMFTLGYNFKPWSDPKAIADGPSIRRYIEETARENGIDRKIRYRHRVLRADWDSANARWNLDVQRGDEPEPLRMTAQFLLMCTGYYRYEAGYTPEFVGREDFAGQVVHPQLWPEDLDYSGKKVVVIGSGATAVTLVPSLTDKAAHVTMLQRSPSYVITLPQKDAISNFLRRFLPETWIYRQARARNVAMQMVFFMLARTFPGLVRKALLKLASLQLGKRFDIRHFSPRYKPWDERVCAVPDGDLFKVLRKGKASVVTEHIDRFVERGIRLKTGEVLEADIIVTATGLDLVMFGGAELAVDGKPFLVNQSMGYRGIMLRDLPNLAAVVGYTNASWTLKADLSSEYFCRLINHMDATGMRQVTARDSTGDVREEPFLNLDSGYIQRAAERMPKQGDRMPWKLYQNYVLDLALLRYGKVEDGYLVFSSPAPQRQAGGAAVQALGLEHHHHHH	not soluble
MPVNSILGVFAKSPIKPLQEHMDKVYDCASLLVPFFEATITGNWDDAVQIRKQISLAEKQGDSLKREIRLTLPSGLFMPVERTDLLELLTQQDKIANKAKDISGRVIGRQLLIPQALQVPFIAYLQRCIDAVGLAQQVINELDDLLEAGFRGREVDFVAKMINELDIIEEDTDDLQIQLRRQLFALESELNPVDVMFLYKTIEWVGGLADLAERVGSRLELMLARVLEHHHHHH	soluble
MPVVSNTELSMRRQEILEGARRCFAEHGYEGATVRRLEETVGKSRGAIFHHFSDKENLFLALAREDAARMAEVVAENGLVEVMRDMLAHPERHDWLATRLEITKMLRTDPSFRNRWIEHQRVLDDAVLERLQRNAHLGRMRDDVPIDVLHTYLETVLDGFISRLASGGDTDNLERVLDLVEESVRSSQPS	not soluble
MPWRNKEASSPSSANPPLEALQSPSFRGNMADKLKDPSTLGFLEAAVKISHTSPDIPAEVQMSVKEHIMRHTRLQRQTTEPASSTRHTSFKRHLPRQMHVSSVDYGNELPPAAEQPTSIGRIKPELYKQKSVDGEDAKSEATKSCGKINFSLRYDYETETLIVRILKAFDLPAKDFCGSSDPYVKIYLLPDRKCKLQTRVHRKTLNPTFDENFHFPVPYEELADRKLHLSVFDFDRFSRHDMIGEVILDNLFEASDLSRETSIWKDIQYATSESVDLGEIMFSLCYLPTAGRLTLTVIKCRNLKAMDITGYSDPYVKVSLLCDGRRLKKKKTTIKKNTLNPVYNEAIIFDIPPENMDQVSLLISVMDYDRVGHNEIIGVCRVGITAEGLGRDHWNEMLAYPRKPIAHWHSLVEVKKSFKEGNPRL	not soluble
MPYADNGVKIYYEVEDGGEPAIVFVHGWTANMNFWREQREYFKGKHRMLFIDNRGHGKSDKPFNRSFYEFDNFVSDLHAAVKDASFDRFVLVGHSFGTMISMRYCVEHPGRVEALVLIGGGARIQSLHRYGYPIGRLFATLAYGISARIIANMAFGRKAGELRDWGLKEALENTPKHAALNTLWTLTTVDLRDIAREIEKPTLIVVGKEDALLPVSKSEELSRLIKNSKMVIVPDAGHCVMLEQPEIVNRVLEEFIHTFSAMLIRA	not soluble
MPYVTVKMLEGRTEEQKKALAEKVTAAVSETTGAPEENIVVFIEEMSKNHYAVGGKRLSDK	not soluble
MQDIPQETLSETTKAEQSAKVDLWEFDLTAIGGERFFFCNEPNEKGEPLTWQGRQYEPYPIQVQDFEMNGKGASPRPNLVVANLFGLVTGMAEDLQSLVGASVVRHQVYSKFLDAVNFSNGNPDADPEQEAVARYNVEQLSELDSSTATIILASPAETDGSVVPGRTMLADSCPWDYRDENCGYDGPPVADEFDKPTSDPKKDKCSHCMKGCEMRNNLVNAGFFASINKLS	not soluble
MQFFTSDTHFFHKDLLGDSDFAPRPFASVDEMNQTIIDNWNARVAETDTVYHLGDIALYFTKPAIKSDEAVFNVLSQLNGHLELIKGNHDSRALFKYLAAHNFSDHGQPKFAFHDVGALIKYDHRQYYLTHYPMMLGIVNQIINLHGHIHHYAVPVKENINVGVDTPEQRYLTTSVPFGTPFSPTEIEQMVTGKAQEFREKQLEHHHHHH	not soluble
MQFQIGAQGDIADMLTMCNNFPGFEAPMRYMIENSHDVVTVFDGSPAVIVLDELVKADESSYLPFKMKKSYKKVDEIAAKMASEEIHFTIHLSSHSQKNVIQIFQSAYSDGYTEEDKKGKIPEGGRVKCAGTETGARSNVKCEEVAKEVNEYIDSNKDKFGDLKVESLGKADSFMKQKPRRNLFIRVPPLE	not soluble
MQGFELEDLTLWLIRDAGEDQMWIDRWAISYPVVQMSEASAGQSIGEWQAGLQTAFERIRGKYVAVVAHGAGAAAFLAWLYQADILTRKKIANIILVPQRPDIFPDDAEHAFQRVRCPCRAALVVPEHGGVPHGWAQKQADLWNARLLVSPHSGSLNGMLGGWQWGMKLMQEMLLA	not soluble
MQGLESLTYYTENYPPLNFAKEDGKPAGIAVDLLLEAAAAVNVTLNLDQIFVQPWPRSYRSALLKQDGVLFSTTRTTHRENLFNWVGPIADIKVVVLARKSSQIKVNDPIELGNYRIGVIRDDIGEQQLLQLEHHHHHH	not soluble
MQGLTMDDISLSIARNMFHLQVYESDGVRFEDLFSKIMYYKSPDFQQVKPYGNIGDRKNDGFIKGQGVYYQVYAPEDASNNVLAAVNKIKDDFEGLRDYWHDICPIKKYYFVLNDKYKGSLPQLHKELIVLQSDFNLIDTGVIVAKDLERELFNLPDDMIRSVVGHLPDIDHEEYMFVSGFTCFISAWINFEKIARHKVFSAKQPNRPLFIGKVVNALVKNKIISRQDATFIKKITEVRNSLVHGVSMLVPKKNEIDMLIFITEKIKPAGVCRLD	not soluble
MQIFPYSDDPNKRYHTWNYALRQQFGEKIFKVPIDGGFDCPNRDGTVAKGGCTFCSVSGSGDMIVAPSDPLPLQFQKEIQLMHQKWPTVDQYIVYFQNFTNTHAPVDVIRHRFEQVVNEKGVVGLSIGTRPDCLPDEVVNYLAELNERFYLWVELGLQTTFEETSAAINRAHDYQTYLDGVAKLRKHGIRVCTHLINGLPGETPAMMRENVRRTIQDSDIQGIKLHLLHLMTNTKMMRDYNEGRLQLMSKEAYVSVICDQLEMIPPEIVIHRLTGDAPFETIIGPMWSLKKWEVLNAIDAEMKRRNSYQGKYTVISGKEVFN	not soluble
MQIQQNNSLIYNTLTKKLSSFIPIKSTRRKLRNHIQYKLEHPKVTNYLSNNYINPFLEGKIPHFDFEKKHYFKNDKIIWQFWYQGKNQASPMIQQCFNSVQSQMKDDYTIIILDKDNIKDYLDFPPFVIEKLENNFFGEKTITFFSDLLRVCLLATYGGIWCDASIFLSSKIPSELCDKDFFTFERSKIKPSKEKLKKFIKSGYFSYGYFNWNDDFKVKMLSSFMIAKTNNTFIQTLKDILMNYWKNEQSSENHYYFILHIIFELLKEHGFVNDIYKNMSDIECHLLQFSAKEKFNSTLWEEIQKQSFLHKLTHFKSIKKDSMIDKIILQSLEHHHHHH	soluble
MQIQTPDWVKHAVFYQIFPDRFARSKQPRKRLLQEARWEDWDSMPTLQGYKGGDLWGIMEDLDYIQNLGINAIYFTPIFQSASNHRYHTHDYYQVDPMLGGNEAFKELLDAAHQRNIKVVLDGVFNHSSRGFFFFHDVLENGPHSPWVNWFKIEGWPLSPYNGEFPANYVGWAGNRALPEFNHDNPEVREYIMEIAEYWLKFGIDGWRLDVPFEIKTPGFWQEFRDRTKAINPEAYIVGEVWGDSRQWLDGTQFDGVMNYLFAGPTIAFAAGDRVVLEQVQSRDYQPYPPLFAAEYATKIQEVLQLYPWEIQLTQLNLLASHDTARLMTIAGGDIASVELSTLLLLTFPGAPSIYYGDEVGLPGGIDPDSRRGFPLEANWNQEIFNTHRQLITIRQTYPALRTGDYQVLYAQGQLYLFARTLGTEELIIAINAGTSSATANVDVASLHTQPNKLLYGTAEAEWNGEEGTQQLSLTLPARSGCILGTGD	soluble
MQKFIIHKGIACPLEYANIDTDQIIPKQFLLAVSKQGFGKHLFHDLRYLDDKESVLNMDFNLNKKEYQNSSILVSFENFGSGSSREHAPWALVDYGIRAIIAPSFADIFKNNALGNGLLTIELAKDEVLEIVDELKKSQDKNIEISLLEKRVFFKDKIFSFDLDDFHRICLLEGLDNIALTLKHEAQIKAYEKNSKSFLV	soluble
MQKLTVGLIGNPNSGKTTLFNQLTGARQRVGNWAGVTVERKEGIFATTDHQVTLVDLPGTYSLTTISSQTSLDEQIACHYILSGDADMLINVVDASNLERNLYLTLQLLELGIPCVVALNMLDIAEKQQVRIDIDALAARLGCPVIPLVSTRGRGIEALKIALDRHQANSDLELVHYPQPLLREADLLAQQMSAQIPPRQRRWLGLQMLEGDIYSRAYAGDAADKLDIALANLSDEIDDPALHIADARYQTIAAICDAVSNTLTAEP	soluble
